Laboratory results published in the MegaScale stability set (Tsuboyama et al. 2023).

B1: EEHEE_rd4_0647 (parent)
chain: MQVTWGNVTVTFSNPEEAKKYAEKVARKLGGQVELHNGQFRIK

Variants of: B1
Test: folding stability dG (cDNA display proteolysis); higher = more stable
Details: PBS, room temperature

First: MQVTWGNVTVTFSNPEEAPKYAEKVARKLGGQVELHNGQFRIK [K19P]
Second: MQVTWGNVTVTFSNPEEAQKYAEKVARKLGGQVELHNGQFRIK [K19Q]
The “folding stability dG” value of the first is lower: 0.106 kcal/mol for the first, 2.61 kcal/mol for the second.

First: MQVTWGNVTVTFSNPEEASKYAEKVARKLGGQVELHNGQFRIK [K19S]
Second: MQVTWGNVTVTFSNPEEATKYAEKVARKLGGQVELHNGQFRIK [K19T]
The “folding stability dG” value of the first is higher: 2.12 kcal/mol for the first, 1.62 kcal/mol for the second.

Compared with MQVTWGNVTVTFSNPEEAVKYAEKVARKLGGQVELHNGQFRIK [K19V], MQVTWGNVTVTFSNPEEAWKYAEKVARKLGGQVELHNGQFRIK [K19W] is higher in “folding stability dG” value: 2.08 kcal/mol for the first, 2.88 kcal/mol for the second.

Compared with MQVTWGNVTVTFSNPEEAYKYAEKVARKLGGQVELHNGQFRIK [K19Y], MQVTWGNVTVTFSNPEEAKAYAEKVARKLGGQVELHNGQFRIK [K20A] is higher in “folding stability dG” value: 2.94 kcal/mol for the first, 2.98 kcal/mol for the second.

First: MQVTWGNVTVTFSNPEEAKDYAEKVARKLGGQVELHNGQFRIK [K20D]
Second: MQVTWGNVTVTFSNPEEAKEYAEKVARKLGGQVELHNGQFRIK [K20E]
The “folding stability dG” value of the first is lower: 2.54 kcal/mol for the first, 2.73 kcal/mol for the second.

First: MQVTWGNVTVTFSNPEEAKFYAEKVARKLGGQVELHNGQFRIK [K20F]
Second: MQVTWGNVTVTFSNPEEAKGYAEKVARKLGGQVELHNGQFRIK [K20G]
The “folding stability dG” value of the first is higher: 2.41 kcal/mol for the first, 2.13 kcal/mol for the second.

Compared with MQVTWGNVTVTFSNPEEAKHYAEKVARKLGGQVELHNGQFRIK [K20H], MQVTWGNVTVTFSNPEEAKIYAEKVARKLGGQVELHNGQFRIK [K20I] is higher in “folding stability dG” value: 2.57 kcal/mol for the first, 2.77 kcal/mol for the second.

Going from MQVTWGNVTVTFSNPEEAKLYAEKVARKLGGQVELHNGQFRIK [K20L] to MQVTWGNVTVTFSNPEEAKMYAEKVARKLGGQVELHNGQFRIK [K20M], the “folding stability dG” value falls from 2.86 kcal/mol to 2.75 kcal/mol.

Going from MQVTWGNVTVTFSNPEEAKNYAEKVARKLGGQVELHNGQFRIK [K20N] to MQVTWGNVTVTFSNPEEAKPYAEKVARKLGGQVELHNGQFRIK [K20P], the “folding stability dG” value falls from 2.58 kcal/mol to 0.849 kcal/mol.

Going from MQVTWGNVTVTFSNPEEAKQYAEKVARKLGGQVELHNGQFRIK [K20Q] to MQVTWGNVTVTFSNPEEAKRYAEKVARKLGGQVELHNGQFRIK [K20R], the “folding stability dG” value rises from 2.72 kcal/mol to 2.96 kcal/mol.

First: MQVTWGNVTVTFSNPEEAKSYAEKVARKLGGQVELHNGQFRIK [K20S]
Second: MQVTWGNVTVTFSNPEEAKTYAEKVARKLGGQVELHNGQFRIK [K20T]
The “folding stability dG” value of the first is higher: 2.64 kcal/mol for the first, 2.62 kcal/mol for the second.

Going from MQVTWGNVTVTFSNPEEAKVYAEKVARKLGGQVELHNGQFRIK [K20V] to MQVTWGNVTVTFSNPEEAKWYAEKVARKLGGQVELHNGQFRIK [K20W], the “folding stability dG” value falls from 2.71 kcal/mol to 2.67 kcal/mol.

Going from MQVTWGNVTVTFSNPEEAKYYAEKVARKLGGQVELHNGQFRIK [K20Y] to MQVTWGNVTVTFSNPEEAKKAAEKVARKLGGQVELHNGQFRIK [Y21A], the “folding stability dG” value falls from 2.43 kcal/mol to 1.3 kcal/mol.

First: MQVTWGNVTVTFSNPEEAKKCAEKVARKLGGQVELHNGQFRIK [Y21C]
Second: MQVTWGNVTVTFSNPEEAKKDAEKVARKLGGQVELHNGQFRIK [Y21D]
The “folding stability dG” value of the first is higher: 2.87 kcal/mol for the first, -0.099 kcal/mol for the second.

Compared with MQVTWGNVTVTFSNPEEAKKEAEKVARKLGGQVELHNGQFRIK [Y21E], MQVTWGNVTVTFSNPEEAKKFAEKVARKLGGQVELHNGQFRIK [Y21F] is higher in “folding stability dG” value: 0.876 kcal/mol for the first, 3.05 kcal/mol for the second.

Going from MQVTWGNVTVTFSNPEEAKKGAEKVARKLGGQVELHNGQFRIK [Y21G] to MQVTWGNVTVTFSNPEEAKKHAEKVARKLGGQVELHNGQFRIK [Y21H], the “folding stability dG” value rises from 0.194 kcal/mol to 1.36 kcal/mol.

Going from MQVTWGNVTVTFSNPEEAKKIAEKVARKLGGQVELHNGQFRIK [Y21I] to MQVTWGNVTVTFSNPEEAKKKAEKVARKLGGQVELHNGQFRIK [Y21K], the “folding stability dG” value falls from 1.34 kcal/mol to 0.616 kcal/mol.

Going from MQVTWGNVTVTFSNPEEAKKLAEKVARKLGGQVELHNGQFRIK [Y21L] to MQVTWGNVTVTFSNPEEAKKMAEKVARKLGGQVELHNGQFRIK [Y21M], the “folding stability dG” value falls from 1.74 kcal/mol to 1.71 kcal/mol.

Going from MQVTWGNVTVTFSNPEEAKKNAEKVARKLGGQVELHNGQFRIK [Y21N] to MQVTWGNVTVTFSNPEEAKKPAEKVARKLGGQVELHNGQFRIK [Y21P], the “folding stability dG” value falls from 0.633 kcal/mol to -0.824 kcal/mol.

Compared with MQVTWGNVTVTFSNPEEAKKQAEKVARKLGGQVELHNGQFRIK [Y21Q], MQVTWGNVTVTFSNPEEAKKRAEKVARKLGGQVELHNGQFRIK [Y21R] is lower in “folding stability dG” value: 0.996 kcal/mol for the first, 0.486 kcal/mol for the second.

Going from MQVTWGNVTVTFSNPEEAKKSAEKVARKLGGQVELHNGQFRIK [Y21S] to MQVTWGNVTVTFSNPEEAKKTAEKVARKLGGQVELHNGQFRIK [Y21T], the “folding stability dG” value rises from 0.62 kcal/mol to 0.931 kcal/mol.

Compared with MQVTWGNVTVTFSNPEEAKKVAEKVARKLGGQVELHNGQFRIK [Y21V], MQVTWGNVTVTFSNPEEAKKWAEKVARKLGGQVELHNGQFRIK [Y21W] is higher in “folding stability dG” value: 1.47 kcal/mol for the first, 2.52 kcal/mol for the second.

First: MQVTWGNVTVTFSNPEEAKKYCEKVARKLGGQVELHNGQFRIK [A22C]
Second: MQVTWGNVTVTFSNPEEAKKYDEKVARKLGGQVELHNGQFRIK [A22D]
The “folding stability dG” value of the first is higher: 1.62 kcal/mol for the first, -0.372 kcal/mol for the second.

Going from MQVTWGNVTVTFSNPEEAKKYEEKVARKLGGQVELHNGQFRIK [A22E] to MQVTWGNVTVTFSNPEEAKKYFEKVARKLGGQVELHNGQFRIK [A22F], the “folding stability dG” value rises from -0.084 kcal/mol to 1.07 kcal/mol.

Compared with MQVTWGNVTVTFSNPEEAKKYGEKVARKLGGQVELHNGQFRIK [A22G], MQVTWGNVTVTFSNPEEAKKYHEKVARKLGGQVELHNGQFRIK [A22H] is lower in “folding stability dG” value: 0.944 kcal/mol for the first, 0.174 kcal/mol for the second.

Compared with MQVTWGNVTVTFSNPEEAKKYIEKVARKLGGQVELHNGQFRIK [A22I], MQVTWGNVTVTFSNPEEAKKYKEKVARKLGGQVELHNGQFRIK [A22K] is lower in “folding stability dG” value: 1.43 kcal/mol for the first, 0.426 kcal/mol for the second.

First: MQVTWGNVTVTFSNPEEAKKYLEKVARKLGGQVELHNGQFRIK [A22L]
Second: MQVTWGNVTVTFSNPEEAKKYMEKVARKLGGQVELHNGQFRIK [A22M]
The “folding stability dG” value of the first is higher: 1.62 kcal/mol for the first, 1.48 kcal/mol for the second.

Compared with MQVTWGNVTVTFSNPEEAKKYNEKVARKLGGQVELHNGQFRIK [A22N], MQVTWGNVTVTFSNPEEAKKYPEKVARKLGGQVELHNGQFRIK [A22P] is lower in “folding stability dG” value: 0.101 kcal/mol for the first, -0.509 kcal/mol for the second.

Compared with MQVTWGNVTVTFSNPEEAKKYQEKVARKLGGQVELHNGQFRIK [A22Q], MQVTWGNVTVTFSNPEEAKKYREKVARKLGGQVELHNGQFRIK [A22R] is higher in “folding stability dG” value: 0.207 kcal/mol for the first, 0.493 kcal/mol for the second.

With MQVTWGNVTVTFSNPEEAKKYSEKVARKLGGQVELHNGQFRIK [A22S] the “folding stability dG” value was 1.24 kcal/mol.
